Laboratory results published in patent US20220380459A1 (DRAGONFLY THERAPEUTICS, published 2022).

B1: A40.G59 (bispecific antibody)
NKG2D-binding VH: QVQLQQWGAGLLKPSETLSLTCAVYGGSFSGYYWSWIRQPPGKGLEWIGEIDHSGSTNYNPSLKSRVTISVDTSKNQFSLKLSSVTAADTAVYYCARARGPWSFDPWGQGTLVTVSS
NKG2D-binding VL: DIQMTQSPSTLSASVGDRVTITCRASQSIGSWLAWYQQKPGKAPKLLIYKASSLESGVPSRFSGSGSGTEFTLTISSLQPDDFATYYCQQYHSFYTFGGGTKVEIK
CD33-binding VH: EVQLVESGGGLVQPGGSLRLSCAASGFTFSSYGMSWVRQAPGKGLEWVANIKQDGSEKYYVDSVKGRFTISRDNAKNSLYLQMNSLRAEDTAVYYCAREGGPYYDSSGYFVYYGMDVWGQGTTVTVSS
CD33-binding VL: DIQMTQSPSTLSASVGDRVTITCRASQSISSWLAWYQQKPGKAPKLLIYDASSLESGVPSRFSGSGSGTEFTLTISSLQPDDFATYYCQQYESFPTFGGGTKVEIK
B2: A40.H76 (bispecific antibody)
NKG2D-binding VH: QVQLQQWGAGLLKPSETLSLTCAVYGGSFSGYYWSWIRQPPGKGLEWIGEIDHSGSTNYNPSLKSRVTISVDTSKNQFSLKLSSVTAADTAVYYCARARGPWSFDPWGQGTLVTVSS
NKG2D-binding VL: DIQMTQSPSTLSASVGDRVTITCRASQSIGSWLAWYQQKPGKAPKLLIYKASSLESGVPSRFSGSGSGTEFTLTISSLQPDDFATYYCQQYHSFYTFGGGTKVEIK
CD33-binding VH: EVQLLESGGGLVQPGGSLRLSCAASGFTFSKYTMSWVRQAPGKGLEWVSAIVGSGESTYFADSVKGRFTISRDNSKNTLYLQMNSLRAEDTAVYYCAREGGPYYDSSGYFVYYGMDVWGQGTTVTVSS
CD33-binding VL: DIQMTQSPSTLSASVGDRVTITCRASQSISSWLAWYQQKPGKAPKLLIYKASSLESGVPSRFSGSGSGTEFTLTISSLQPDDFATYYCQQYDDLPTFGGGTKVEIK
B3: F47.G59 (bispecific antibody)
NKG2D-binding VH: QVQLQQWGAGLLKPSETLSLTCAVYGGSFSGYYWSWIRQPPGKGLEWIGEIDHSGSTNYNPSLKSRVTISVDTSKNQFSLKLSSVTAADTAVYYCARARGPWSFDPWGQGTLVTVSS
NKG2D-binding VL: DIQMTQSPSTLSASVGDRVTITCRASQSISSWLAWYQQKPGKAPKLLIYKASSLESGVPSRFSGSGSGTEFTLTISSLQPDDFATYYCQQYDTFITFGGGTKVEIK
CD33-binding VH: EVQLVESGGGLVQPGGSLRLSCAASGFTFSSYGMSWVRQAPGKGLEWVANIKQDGSEKYYVDSVKGRFTISRDNAKNSLYLQMNSLRAEDTAVYYCAREGGPYYDSSGYFVYYGMDVWGQGTTVTVSS
CD33-binding VL: DIQMTQSPSTLSASVGDRVTITCRASQSISSWLAWYQQKPGKAPKLLIYDASSLESGVPSRFSGSGSGTEFTLTISSLQPDDFATYYCQQYESFPTFGGGTKVEIK
B4: F47.H76 (bispecific antibody)
NKG2D-binding VH: QVQLQQWGAGLLKPSETLSLTCAVYGGSFSGYYWSWIRQPPGKGLEWIGEIDHSGSTNYNPSLKSRVTISVDTSKNQFSLKLSSVTAADTAVYYCARARGPWSFDPWGQGTLVTVSS
NKG2D-binding VL: DIQMTQSPSTLSASVGDRVTITCRASQSISSWLAWYQQKPGKAPKLLIYKASSLESGVPSRFSGSGSGTEFTLTISSLQPDDFATYYCQQYDTFITFGGGTKVEIK
CD33-binding VH: EVQLLESGGGLVQPGGSLRLSCAASGFTFSKYTMSWVRQAPGKGLEWVSAIVGSGESTYFADSVKGRFTISRDNSKNTLYLQMNSLRAEDTAVYYCAREGGPYYDSSGYFVYYGMDVWGQGTTVTVSS
CD33-binding VL: DIQMTQSPSTLSASVGDRVTITCRASQSISSWLAWYQQKPGKAPKLLIYKASSLESGVPSRFSGSGSGTEFTLTISSLQPDDFATYYCQQYDDLPTFGGGTKVEIK
B5: A49.I07 (bispecific antibody)
NKG2D-binding VH: EVQLVESGGGLVKPGGSLRLSCAASGFTFSSYSMNWVRQAPGKGLEWVSSISSSSSYIYYADSVKGRFTISRDNAKNSLYLQMNSLRAEDTAVYYCARGAPMGAAAGWFDPWGQGTLVTVSS
NKG2D-binding VL: DIQMTQSPSSVSASVGDRVTITCRASQGISSWLAWYQQKPGKAPKLLIYAASSLQSGVPSRFSGSGSGTDFTLTISSLQPEDFATYYCQQGVSFPRTFGGGTKVEIK
CD33-binding VH: EVQLVESGGGLVQPGGSLRLSCAASGFTFGSYWMSWVRQAPGKGLEWVATIKQDGSEKSYVDSVKGRFTISRDNAKNSLYLQMNSLRAEDTAVYYCARPLNAGELDVWGQGTMVTVSS
CD33-binding VL: DIQMTQSPSTLSASVGDRVTITCRASQSISSWLAWYQQKPGKAPKLLIYEASSLESGVPSRFSGSGSGTEFTLTISSLQPDDFATYYCQQSQSYPPITFGGGTKVEIK
B6: C26.H76 (bispecific antibody)
NKG2D-binding VH: QVQLQQWGAGLLKPSETLSLTCAVYGGSFSGYYWSWIRQPPGKGLEWIGEIDHSGSTNYNPSLKSRVTISVDTSKNQFSLKLSSVTAADTAVYYCARARGPWSFDPWGQGTLVTVSS
NKG2D-binding VL: DIQMTQSPSTLSASVGDRVTITCRASQSISSWLAWYQQKPGKAPKLLIYKASSLESGVPSRFSGSGSGTEFTLTISSLQPDDFATYYCQQYGSFPITFGGGTKVEIK
CD33-binding VH: EVQLLESGGGLVQPGGSLRLSCAASGFTFSKYTMSWVRQAPGKGLEWVSAIVGSGESTYFADSVKGRFTISRDNSKNTLYLQMNSLRAEDTAVYYCAREGGPYYDSSGYFVYYGMDVWGQGTTVTVSS
CD33-binding VL: DIQMTQSPSTLSASVGDRVTITCRASQSISSWLAWYQQKPGKAPKLLIYKASSLESGVPSRFSGSGSGTEFTLTISSLQPDDFATYYCQQYDDLPTFGGGTKVEIK
B7: C26.I07 (bispecific antibody)
NKG2D-binding VH: QVQLQQWGAGLLKPSETLSLTCAVYGGSFSGYYWSWIRQPPGKGLEWIGEIDHSGSTNYNPSLKSRVTISVDTSKNQFSLKLSSVTAADTAVYYCARARGPWSFDPWGQGTLVTVSS
NKG2D-binding VL: DIQMTQSPSTLSASVGDRVTITCRASQSISSWLAWYQQKPGKAPKLLIYKASSLESGVPSRFSGSGSGTEFTLTISSLQPDDFATYYCQQYGSFPITFGGGTKVEIK
CD33-binding VH: EVQLVESGGGLVQPGGSLRLSCAASGFTFGSYWMSWVRQAPGKGLEWVATIKQDGSEKSYVDSVKGRFTISRDNAKNSLYLQMNSLRAEDTAVYYCARPLNAGELDVWGQGTMVTVSS
CD33-binding VL: DIQMTQSPSTLSASVGDRVTITCRASQSISSWLAWYQQKPGKAPKLLIYEASSLESGVPSRFSGSGSGTEFTLTISSLQPDDFATYYCQQSQSYPPITFGGGTKVEIK
B8: C26.G59 (bispecific antibody)
NKG2D-binding VH: QVQLQQWGAGLLKPSETLSLTCAVYGGSFSGYYWSWIRQPPGKGLEWIGEIDHSGSTNYNPSLKSRVTISVDTSKNQFSLKLSSVTAADTAVYYCARARGPWSFDPWGQGTLVTVSS
NKG2D-binding VL: DIQMTQSPSTLSASVGDRVTITCRASQSISSWLAWYQQKPGKAPKLLIYKASSLESGVPSRFSGSGSGTEFTLTISSLQPDDFATYYCQQYGSFPITFGGGTKVEIK
CD33-binding VH: EVQLVESGGGLVQPGGSLRLSCAASGFTFSSYGMSWVRQAPGKGLEWVANIKQDGSEKYYVDSVKGRFTISRDNAKNSLYLQMNSLRAEDTAVYYCAREGGPYYDSSGYFVYYGMDVWGQGTTVTVSS
CD33-binding VL: DIQMTQSPSTLSASVGDRVTITCRASQSISSWLAWYQQKPGKAPKLLIYDASSLESGVPSRFSGSGSGTEFTLTISSLQPDDFATYYCQQYESFPTFGGGTKVEIK
B9: A49.I35 (bispecific antibody)
NKG2D-binding VH: EVQLVESGGGLVKPGGSLRLSCAASGFTFSSYSMNWVRQAPGKGLEWVSSISSSSSYIYYADSVKGRFTISRDNAKNSLYLQMNSLRAEDTAVYYCARGAPMGAAAGWFDPWGQGTLVTVSS
NKG2D-binding VL: DIQMTQSPSSVSASVGDRVTITCRASQGISSWLAWYQQKPGKAPKLLIYAASSLQSGVPSRFSGSGSGTDFTLTISSLQPEDFATYYCQQGVSFPRTFGGGTKVEIK
CD33-binding VH: QLQLQESGPGLVKPSETLSLTCTVSGGSISSTDYYWGWIRQPPGKGLEWIGSIGYSGTYYNPSLKSRVTISVDTSKNQFSLKLSSVTAADTAVYYCARETAHDVHGMDVWGQGTTVTVSS
CD33-binding VL: EIVLTQSPATLSLSPGERATLSCRASHSVYSYLAWYQQKPGQAPRLLIYDASNRATGIPARFSGSGSGTDFTLTISSLEPEDFAVYYCQQYDNLPTFGGGTKVEIK
B10: C26.I35 (bispecific antibody)
NKG2D-binding VH: QVQLQQWGAGLLKPSETLSLTCAVYGGSFSGYYWSWIRQPPGKGLEWIGEIDHSGSTNYNPSLKSRVTISVDTSKNQFSLKLSSVTAADTAVYYCARARGPWSFDPWGQGTLVTVSS
NKG2D-binding VL: DIQMTQSPSTLSASVGDRVTITCRASQSISSWLAWYQQKPGKAPKLLIYKASSLESGVPSRFSGSGSGTEFTLTISSLQPDDFATYYCQQYGSFPITFGGGTKVEIK
CD33-binding VH: QLQLQESGPGLVKPSETLSLTCTVSGGSISSTDYYWGWIRQPPGKGLEWIGSIGYSGTYYNPSLKSRVTISVDTSKNQFSLKLSSVTAADTAVYYCARETAHDVHGMDVWGQGTTVTVSS
CD33-binding VL: EIVLTQSPATLSLSPGERATLSCRASHSVYSYLAWYQQKPGQAPRLLIYDASNRATGIPARFSGSGSGTDFTLTISSLEPEDFAVYYCQQYDNLPTFGGGTKVEIK

Target: T1, human CD33 expressed on cells (human, UniProt P20138 18-364)
T1 construct: endogenous CD33 of human AML cell lines and blood monocytes; also called cell-expressed CD33 (Molm-13, Mv4-11, monocytes)
T1 sequence (P20138 18-364): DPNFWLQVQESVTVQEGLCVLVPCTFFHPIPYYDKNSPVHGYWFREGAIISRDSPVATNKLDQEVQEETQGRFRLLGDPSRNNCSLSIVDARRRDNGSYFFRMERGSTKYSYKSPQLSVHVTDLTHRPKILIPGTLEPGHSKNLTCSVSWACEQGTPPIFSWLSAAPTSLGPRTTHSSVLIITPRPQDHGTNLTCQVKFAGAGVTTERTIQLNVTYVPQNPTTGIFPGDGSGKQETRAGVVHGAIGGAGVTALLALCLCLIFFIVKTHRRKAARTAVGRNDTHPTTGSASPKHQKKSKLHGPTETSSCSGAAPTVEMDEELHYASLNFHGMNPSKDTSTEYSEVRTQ
Assay: flow cytometry on Molm-13 cells, fluorophore-conjugated anti-human IgG secondary antibody, MFI as fold over background (FOB)
Description: Binding of the TriNKET was detected using a fluorophore conjugated anti-human IgG secondary antibody. Cells were analyzed by flow cytometry, binding MFI to cell expressed CD33 was normalized to secondary antibody controls to obtain fold over background values.

Binding result, binds:
B1
B2
B3
B4
B5
B6
B7
B8
B9
B10
